Experimental data from US20190282704A1 (ZOETIS SERVICES, published 2019).
Bridges are numbered along the chain shown (N, C = ends). Where no end group is shown, it is not given here. mT2a = not defined here

B3: Peptide ZTS-562 (peptide)
peptide: CEISVPADTFERKSFC
modifications: constrained through the terminal cysteines; linker only shown in FIG. 13A
B6: Peptide ZTS-563 (peptide)
peptide: CAKVSMPADNFERKNFILTC
modifications: linker 1-20 via mT2a; reading uncertain
B8: ZTS-361 (antibody)
heavy: QVLLVQSGAEVRTPGASVKIFCKASGYSFTSYTIHWLRQAPAQGLEWMGNINPTSGYTENNQRFKDRLTLTADTSTNTAYMELSSLRSADTAMYYCARWGFKYDGEWSFDVWGAGTTVTVSSASTTAPSVFPLAPSCGTTSGATVALACLVLGYFPEPVTVSWNSGALTSGVHTFPAVLQASGLYSLSSMVTVPSSRWLSDTFTCNVAHPPSNTKVDKTVRKTDHPPGPKPCDCPKCPPPEAAGAPSIFIFPPKPKDTLSISRTPEVTCLVVDLGPDDSDVQITWFVDNTQVYTAKTSPREEQFNSTYRVVSVLPILHQDWLKGKEFKCKVNSKSLPSPIERTISKAKGQPHEPQVYVLPPAQEELSRNKVSVTCLIKSFHPPDIAVEWEITGQPEPENNYRTTPPQLDSDGTYFVYSKLSVDRSHWQRGNTYTCSVSHEALHSHHTQKSLTQSPGK
light: EIQMTQSPSSLSASPGDRVTITCRASQGISIWLSWYQQKPGNIPKVLINKASNLHIGVPSRFSGSGSGTDFTLTISSLEPEDAATYYCLQSQTYPLTFGGGTKLEIKRSDAQPSVFLFQPSLDELHTGSASIVCILNDFYPKEVNVKWKVDGVVQNKGIQESTTEQNSKDSTYSLSSTLTMSSTEYQSHEKFSCEVTHKSLASTLVKSFQRSECQRE

How the values were obtained:
[1] = biological target: T1, equine IL-31 (Equine_IL31) (equine); test: Biacore, IL-31 surface, single antibody concentration
T1 construct: Production of the protein used as Biacore surface is not described; also called horse IL-31
T1 chain: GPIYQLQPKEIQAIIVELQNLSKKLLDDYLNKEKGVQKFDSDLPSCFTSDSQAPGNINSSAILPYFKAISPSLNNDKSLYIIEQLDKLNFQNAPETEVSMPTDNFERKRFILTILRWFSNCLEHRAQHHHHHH

ZTS-361 = biological target: B8; test: cell-based or functional assay
Peptide ZTS-562 = biological target: B3; test: Biacore, peptide ZTS-562 immobilised on the surface
Peptide ZTS-564 = biological target: T2, Peptide ZTS-564 (terminal cysteines constrained with the mT2b linker (CLIPS)); test: Biacore, peptide ZTS-564 immobilised on the surface
T2 peptide: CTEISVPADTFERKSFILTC

[2] = biological target: T3, canine IL-31 (Canine_IL31) (canine); test: cell-based or functional assay
T3 chain: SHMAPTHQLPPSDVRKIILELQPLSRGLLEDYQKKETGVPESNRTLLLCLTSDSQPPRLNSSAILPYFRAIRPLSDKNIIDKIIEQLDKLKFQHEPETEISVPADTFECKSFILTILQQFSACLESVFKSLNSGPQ

Peptide ZTS-561 = biological target: T4, Peptide ZTS-561 (terminal cysteines constrained with the mT2a linker (CLIPS)); test: Biacore, peptide ZTS-561 immobilised on the surface
T4 construct: Unconjugated constrained peptide; also called canine IL-31 15H05 mimotope ZTS-561

Peptide ZTS-563 = biological target: B6; test: Biacore, peptide ZTS-563 immobilised on the surface
human IL-31 = biological target: T5, human IL-31 (human, UniProt Q6EBC2 24-164); test: Biacore, IL-31 surface, single antibody concentration
T5 construct: Production of the protein used as Biacore surface is not described
T5 sequence: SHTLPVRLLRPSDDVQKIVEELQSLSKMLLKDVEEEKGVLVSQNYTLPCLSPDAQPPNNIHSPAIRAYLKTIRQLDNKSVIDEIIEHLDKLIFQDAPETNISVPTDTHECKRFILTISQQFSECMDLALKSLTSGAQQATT

B1: ZIL159 (antibody, V domains shown)
VH: EVQLVESGGDLVKPAGSLRLSCVASGFTFSSYVMTWVRQAPGKGLQWVAGINSEGSRTAYADAVKGRFTISRDNAKNTLYLQIDSLRAEDTAIYYCATGDIVATGTSYWGQGTLVTVSS
VL: SNVLTQPPSVSVSLGQTATISCSGETLNRFYTQWFQQKAGQAPVLVIYKDTERPSGIPDRFSGSSSGNIHTLTISGARAEDEAAYYCKSAVSIDVGVFGGGTHLTVFR
notes: Recombinant fully canine IgG (65_1 isotype); also called CAN-ZIL159
[1]
  binding result: no binding

B2: ZIL94 (antibody, V domains shown)
VH: EVQLVDSGGDLVKPGGSLRLSCVASGFTFSTYFMSWVRQAPGRGLQWVALISSDGSGTYYADAVKGRFTISRDNAKNTLYLQMNSLRAEDTAMYYCAIFWRAFNDWGQGTLVTVSS
VL: QTVVIQEPSLSVSPGGTVTLTCGLNSGSVSTSNYPGWYQQTRGRTPRTIIYDTGSRPSGVPNRFSGSISGNKAALTITGAQPEDEADYYCSLYTDSDILVFGGGTHLTVLR
notes: Recombinant fully canine IgG (65_1 isotype); also called CAN-ZIL94
[1]
  binding result: no binding

## B3
ZTS-361
  IC50 of peptide blocking mAb ZTS-361 inhibition of feline IL-31 mediated STAT3 phosphorylation in FCWF-4 cells, unconjugated: 1.05 µg/mL

B4: ZIL69 (antibody, V domains shown)
VH: EVQLVESGGDLVKPAGSLRLSCVASGFTFSSYAMKWVRQAPGKGLQWVATINNDGTRTGYADAVRGRFTISKDNAKNTLYLQMDSLRADDTAVYYCTKGNAESGCTGDHCPPYWGQGTLVTVSS
VL: SSVLTQPPSVSVSLGQTATISCSGESLNKYYAQWFQQKAGQAPVLVIYKDTERPSGIPDRFSGSSAGNTHTLTISGARAEDEADYYCESAVSSETNVFGSGTQLTVLR
notes: Recombinant fully canine IgG (65_1 isotype); also called CAN-ZIL69
[1]
  binding result: no binding

B5: ZIL171 (antibody, V domains shown)
VH: EVQLVESGGDLVKPAGSLRLSCVASGFTFRTYVMNWVRQAPGKGLQWVASINGGGSSPTYADAVRGRFTVSRDNAQNSLFLQMNSLRAEDTAIYFCVVSMVGPFDYWGHGTLVTVSS
VL: SSVLTQPPSVSVSLGQTATISCSGKSLSYYYAQWFQQKAGQAPVLVIYKDTERPSGIPDRFSGSSSGNTHTLTISGARAEDEADYYCESAVSSDTIVFGGGTHLTVLR
notes: Recombinant fully canine IgG (65_1 isotype); also called CAN-ZIL171
[1]
  binding result: no binding

## B6
ZTS-361
  IC50 of peptide blocking mAb ZTS-361 inhibition of feline IL-31 mediated STAT3 phosphorylation in FCWF-4 cells, unconjugated: 1.74 µg/mL

B7: ZTS-927 (antibody)
heavy: QVLLVQSGAEVRTPGASVKIFCKASGYSFTSYTIHWLRQAPAQGLEWMGNINPTSGYTENNQRFKDRLTLTADTSTNTAYMELSSLRSADTAMYYCARWGFKYDGEWSFDVWGAGTTVTVSSASTTAPSVFPLAPSCGTTSGATVALACLVLGYFPEPVTVSWNSGALTSGVHTFPAVLQASGLYSLSSMVTVPSSRWLSDTFTCNVAHPPSNTKVDKTVRKTDHPPGPKPCDCPKCPPPEMLGGPSIFIFPPKPKDTLSISRTPEVTCLVVDLGPDDSDVQITWFVDNTQVYTAKTSPREEQFNSTYRVVSVLPILHQDWLKGKEFKCKVNSKSLPSPIERTISKAKGQPHEPQVYVLPPAQEELSRNKVSVTCLIKSFHPPDIAVEWEITGQPEPENNYRTTPPQLDSDGTYFVYSKLSVDRSHWQRGNTYTCSVSHEALHSHHTQKSLTQSPGK
light: EIQMTQSPSSLSASPGDRVTITCRASQGISIWLSWYQQKPGNIPKVLINKASNLHIGVPSRFSGSGSGTDFTLTISSLEPEDAATYYCLQSQTYPLTFGGGTKLEIKRSDAQPSVFLFQPSLDELHTGSASIVCILNDFYPKEVNVKWKVDGVVQNKGIQESTTEQNSKDSTYSLSSTLTMSSTEYQSHEKFSCEVTHKSLASTLVKSFQRSECQRE
Peptide ZTS-562
  Kd: 2.78 nM
Peptide ZTS-564
  Kd: 4.13 nM
[2]
  IC50, inhibition of canine IL-31-induced STAT3 phosphorylation, canine DH82 cells: 23.2 µg/mL
  IC50, inhibition of canine IL-31-induced STAT3 phosphorylation, feline FCWF4 cells: 39.6 µg/mL
Peptide ZTS-561
  Kd: 1.02 nM
Peptide ZTS-563
  Kd: 1.48 nM

## B8
[2]
  IC50, inhibition of canine IL-31-induced STAT3 phosphorylation, canine DH82 cells: 23 µg/mL
  IC50, inhibition of canine IL-31-induced STAT3 phosphorylation, feline FCWF4 cells: 38.8 µg/mL

B9: ZIL154 (antibody, V domains shown)
VH: EVHLVESGGDLVKPWGSLRLSCVASGFTFSDRGMSWVRQSPGKGLQWVAYIRYDGSRTDYADAVEGRFTISRDNAKNTLYLQMNSLRAEDTAVYYCARWDGSSFDYWGQGTLVTVSS
VL: DIVVTQTPLSLSVSPGETASFSCKASQSLLHSDGNTYLDWFRQKPGQSPQRLIYKVSNRDPGVPDRFSGSGSGTDFTLRISGVEADDAGLYYCMQAIHFPLTFGAGTKVELKR
notes: Recombinant fully canine IgG (65_1 isotype); also called CAN-ZIL154
[1]
  binding result: no binding
Human IL-31
  binding result: no binding

B10: mouse anti IL-31 antibody 11E12 (antibody, V domains shown)
VH: QVQLQQSGAELVKPGASVKLSCKASGYTFKYYDINWVRQRPEQGLEWIGWIFPGDGGTKYNETFKGKATLTTDKSSSTAYMQLSRLTSEDSAVYFCARGGTSVIRDAMDYWGQGTSVTVSS
VL: DIVLTQSPASLAVSLGQRATISCRASESVDNYGISFMHWYQQKPGQPPKLLIYRASNLESGIPARFSGSGSRTDFTLTINPVETDDVATYYCQQSNKDPLTFGAGTKLELK
notes: Mouse monoclonal used for comparison; also called Mu-11E12; MU-11E12
[1]
  binding result: no binding
Human IL-31
  binding result: no binding

B11: mouse anti IL-31 antibody 15H05 (antibody, V domains shown)
VH: QVQLQQSAAELARPGASVKMSCKTSGYTFTSYTIHWIKQRPGQGLEWIGNINPTSGYTENNQRFKDKTTLTVDRSSNTAYLQLHSLTSEDSAVYFCARWGFKYDGEWSFDVWGAGTTVTVSS
VL: DIQMNQSPSSLSASLGDTITVTCRASQGISIWLSWYQQKPGNIPKVLINKASNLHIGVPPRFSGSGSGTHFTLTITSLQPEDIATYYCLQSQTYPLTFGGGTKLEIN
notes: Mouse hybridoma monoclonal; also called Mu-15H05; MU-15H05
[1]
  binding result: binds
Human IL-31
  binding result: no binding
